The series in a line: soluble on expression in E. coli; label from the status in PepcDB or PDB records.
“MGSDKIHHHHHHMKTKPIDLYILSGFLGSGKSTLLKRLIEQEQARGNKIGVLMNELGEVSVDSSIVPKDTPLKEMLNGCICCTIQGELSAQLQSFIEEYELDVIFIEATGAAHPLEVVEACTHPVFAGQVRVRGVLTVVNARQWIEGKMSIKIKKLMEAQVTFADLIVVNKVDQVTDAQVEQLTTSIKDLNPKAINIPTTFSNLEPVHSERLHHAAAPSSRGSESKAHVHEHLHLRTMAVPIQHPVDRMELLSFLKGIQGQIYRVKGFIHLKESPGLFLFNYAYGDPMFERHRTDQAYAPVLVFIGDDLDHQAIEEGLQQLQQ”: the “soluble on expression in E. coli” value is given as “not soluble”.

In the case of “MIATTSQQSFNLLRTLAVQKASDFADEFYIYMLKDQEASLFLSSQQVHDRLHGSMSKWIADILTNTGDSLADLINHQKKIGQIHARIGIPVDLVERGARRLKWHLYEHIAQVADDKALCFDAMRFASISMDIAIEIMSKTYSQSHDLEHHHHHH”, the “soluble on expression in E. coli” value is recorded as “not soluble”.

In the case of “SEDGGWNTIESDPAVFTQLLEDLGVKDVKVEEVLQLDAAFLRSLEPVHGLIFLFKWLPDQGSEQELSFSQDVDLFFANQVIQNACGTQALLSVVFNAKDLELGSELAEFKEFTKDFDPQTRGLALSNSETIRSAHNSLSGLQHFSFEFDEKEKSDSFHFISYVPFQGRIYELDGLKKGPICRGSYTAERHWTDVAISEIEKRIERYGEGEIRFNLLAVVRDPLKIWQQELLSYQTALESCSLEVERMSISMQMKEIQTRMEDEKKRRESIRRESNRRRHNMLPFIFHLIKWLHENSDLSFT”, the “soluble on expression in E. coli” value is recorded as “soluble”.

Take “MQHYLLDSNQRLNVSFSKDSVAAYYQCFNQPYRKEVPPLMCASLWPKFDLFKKYANSELILTKSAINQTQKIEVDTIYVGHLEDIECRQTRNITRYTMALTLTKNDQHVITVTQTFIKAMKLEHHHHHH”: the “soluble on expression in E. coli” value was “soluble”.

Consider “MSSKHEILNALKLSALTNHPMPSIDVAPRVEDLVGQFETNLKTVAGTLHREGGLAALQAKVDELIAQGLQVISLVEGVTANRDVPPTAHELRDIDYAVIPGDVGVAENGAIWVNNKNLGHRVTPFICENLILALPIHKIVPNMHQAAKEVTLDAGEFGVFIAGPSKTADIEQALVVGAHGACSLNVYLV”, for which the “soluble on expression in E. coli” value is recorded as “soluble”.

As for “VTMKEASAREIDEVVITGTGAQKKLTVTGAITNVDVDVLKANPSGSMANALAGNVPGILAMQTSGKPGSVSEFWIRGISTFGASNSALVLVDGFERSLDEINVEDVESFSVLKDASATAIYGSKGANGVVLITTKHGKAGK”, the “soluble on expression in E. coli” value is listed as “not soluble”.

Consider “MPAKDVQICPIAVDTTVFRSRTWDRLKFEIEYGLQRGTTANSYLISADKIALFDPPGESFTDNFVGTLIQRLDLNSLDYVILGHVNANRAHTLKLLLSLAPQATIICSNPAAQNLEKLLADAEVNNPIQVMKGNDHLDLGRGHELTFIPTPSPRYPGQLCTYDPRTEILFTDKLFGAHVCGDQVFDEGWTIYQEDRRYYFDCLLAPAAAQVSAALNKLEAYPAQTYAPSHGPLVRYGLRELTRNYQQWLSEQQAQALEHHHHHH”, for which the “soluble on expression in E. coli” value is given as “not soluble”.

With “MKDRFELVSKYQPQGDQPKAIEKLVKGIQEGKKHQTLLGATGTGKTFTVSNLIKEVNKPTLVIAHNKTLAGQLYSEFKEFFPNNAVEYFVSYYDYYQPEAYVPQTDTFIEKDASINDEIDKLRHSATSALFERRDVIIIASVSCIYGLGSPEEYREMVVSLRTEMEIERNELLRKLVDIQYARNDIDFQRGTFRVRGDVVEIFPASRDEHCVRVEFFGDEIERIREVDALTGEILGDRDHVAIFPASHFVTRAEKMEKAIQNIEKELEEQLKVMHENGKLLEAQRLEQRTRYDLEMMREMGFCSGIENYSRHLTLRPPGSTPYTLLDYFPDDFMIVVDESHVTIPQVRGMFNGDQARKQVLVDHGFRLPSALDNRPLRFEEFEKHMHNIVYVSATPGPYEIEHTDEMVEQIIRPTGLLDPLIDVRPIEGQIDDLIGEIQARIERNERVLVTTLTKKMSEDLTDYLKEIGIKVNYLHSEIKTLERIEIIRDLRLGKYDVLVGINLLREGLDIPEVSLVAILDADKEGFLRSERSLIQTIGRAARNAEGRVIMYADKITKSMEIAINETKRRREQQERFNEEHGITPKTINKEIRDVIRATVAAEDKAEYKTKAAPKLSKMTKKERQKVVEQMEHEMKEAAKALDFERAAELRDLLLELKAEG”, the “soluble on expression in E. coli” value is reported as “soluble”.

“MGSDKIHHHHHHMKNLLDLSYEELVTEITNLGLERYRADQILDWVFDKKVNNFDEMTNLSKKHRALLKEHFSISFLKLLDKKVSRIDGTTKFLWELEDGNTIESVMLFHPDRITACISTQVGCPVKCIFCATGMSGFVRNLTTGEIVAQILSMEKEEKKKIGNVVYMGMGEPLLNYENTIKSIRILNHKKMGNIGIRRITISTVGIPDRIIQLAEEGLDVKLALSLHAPTNFKRDQLVPLNKKYSIEEILNAVKIYQRKTGNRVTIEYVLIRGINDEISDAKKLAEILRNMKVFVNLIPVNPTVEGLRRPSRERLLTFKRILLENGIEAEIRREKGTDIEAACGQLRLKRIKSRS”: the “soluble on expression in E. coli” value is given as “not soluble”.

“MKVIINGKEFDIPKGVRFGELSHEIEKAGIEFGCTDGQCGVCVARVIKGMECLNEPSEEEEETLWRVGAVDEDQRLTCQLVIEKEDCDEIVIESED”: the “soluble on expression in E. coli” value is “not soluble”.

For “MEEDLLGICGFDSSKKYRLEELAKYQSGSCIEFEDDDEMAVDYPCPFCSDDYDLVELCHHIDEEHQLDANNGICPVCSRRVKMHMVDHITTQHRDVFKRLYKDESYSAFSPGTRKYLQSLIDEPLSTNHTSKSVLDPLLSFIYNPPSPKKSKLVQPDSSSEASMEDNSLIRDSTEKDWESPSPLSDTELLEKAKKREFVQGLISSAIFDHIYNF”, the “soluble on expression in E. coli” value is “soluble”.

On to “MVETPPAWVLLKRARERIYTLPPDFPGFRARLGLCLDGVWYVGAVEAEGFAPKTLGLFGEAGAIAEKELGSLLGHRRPAPFEEGEGRYPMRLFAEGPLGTGIALEDPFRSRIWVKEGRLALIERHLPEGSFRIHLETWREVGERLLPHRFLLVHRDPRGHLLKVERFRDEYAQVGPYWLPVEREVVVEGEGLGVLVLRLEEVEVKG”, for which the “soluble on expression in E. coli” value is listed as “soluble”.

With “MAADRNTGHTEEDKLDVLKSTQTVIHKALEKLGYPEEVYELLKEPMRLLTVKIPVRMDDGSVKIFTGYRAHNDSVGPTKGGIRFHPNVTEKEVKALSIWMSLKCGIIDLPYGGGKGGIVCDPRDMSFRELERLSRGYVRAISQIVGPTKDVPAPDVFTNSQIMAWMMDEYSRIDEFNSPGFITGKPLVLGGSHGRESATAKGVTICIKEAAKKRGIDIKGARVVVQGFGNAGSYLAKFMHDAGAKVVGISDAYGGLYDPEGLDIDYLLDRRDSFGTVTKLFNDTITNQELLELDCDILVPAAIENQITEENAHNIRAKIVVEAANGPTTLEGTKILSDRDILLVPDVLASAGGVTVSYFEWVQNNQGFYWSEEEVEEKLEKMMVKSFNNIYEMANNRRIDMRLAAYMVGVRKMAEASRFRGWI”, the “soluble on expression in E. coli” value is on record as “soluble”.

Take “MDLQHWQAQFENWLKNHHQHQDAAHDVCHFRRVWATAQKLAADDDVDMLVILTACYFHDIVSLAKNHPQRQRSSILAAEETRRLLREEFEQFPAEKIEAVCHAIAAHSFSAQIAPLTTEAKIVQDADRLEALGAIGLARVFAVSGALGVALFDGEDPFAQHRPLDDKRYALDHFQTKLLKLPQTMQTARGKQLAQHNAHFLVEFMAKLSAELAGENEGVDHKVIDAFSSAGLEHHHHHH”: the “soluble on expression in E. coli” value is “soluble”.

On to “ADLLSKFDPLIAEREALLATGVRDPYAIVMDKVLSPTEAMINGRKTILLGTYNYMGMTFDPDVIAAGKQALDEFGSGTTGSRVLNGTYQGHKACEDALKEFYGTEHAIVFSTGYQANLGMISTLAGKGDYIILDADSHASIYDGCWLGDAEIVRFRHNSVEDLDKRLGRLPAEAGKLVVLEGVYSMMGDIAPLQEMVAVSKKHGAMILVDEAHGMGFFGEHGRGVFEEAGVEADVDFVVGTFSKSVGTVGGFCVSNHPKFEVLRLVCRPYVFTASLPPSVVATAATSIRKLMHAGDKRAHLWKNSRRLHQGLRDMGYKLGTETAQSAIIAVILTDMAQAVALWQGLLEAGLYVNTARPPATPAGMFLLRCSLCAEHSDEQVEQILGMFESAGRATGVIPKLAAALEHHHHHH”, for which the “soluble on expression in E. coli” value was “soluble”.

As to “MSLKTLLPTSTAGSLPKPSWLAQPEKLWSPWKLQDEELIEGKRDALRLSLNDQQQAGIDIVSDGEQTRQHFVTTFIEHLSGVDFEKRETVRIRNRYDASVPTVVGAVSREKPVFVEDAKFLRQQTRQPIKWALPGPMTMIDTLYDSHYKSREKLAWEFAKILNQEARELEAAGVDIIQFDEPAFNVFFDEVNDWGVATLEKAIEGLKCETAVHICYGYGIKANTDWKKTLGSEWRQYEEAFPKLQKSNIDLISLECHNSRVPMDLIELIRGKKVMVGAIDVATSAIETPEEVADTLRKALRFVDADKLYPCTNCGMAPLSRQVARSKLNALGAGAEIIRRELSVEGHHHHHH”, the “soluble on expression in E. coli” value was “soluble”.

In the case of “MLIEERLAKIQKIVNEQKSISMEALAEQVSVSKDTIRRDLIRLEKEGHLKRTHGGAISVQSEATIYDYAQRIVKHPEKKQAIAQKVWANIPKQASIFFDSSTTVEAAIRAMENSPIHAITNSLSHALLLAQMDQTKITVLPGQLHKQQLFLFGAETVAKVGEFAPDYTLLGVFALSEQGLFIHTEEEGQVKRRMIQQGKQVIALADQTKLNKTGLFKICELTEIDCLVTDTRPDEKFCEQLAQAGVTLIVADELEHHHHHH”, the “soluble on expression in E. coli” value was “soluble”.

With “MKYSYVARQPILDREKRTIGYELLFRDGPKNTFPEVEPELATSRLLSDHFLSTHYNTLGNKLGFVNFPHQSLVNLVPTLFPKDSLVIEVLEDCEPTQELLDAIKHLHECGYRIALDDFVPTKAWKRFLPYVSMIKFDIRLVPIEKAAIFIQALSQFNIDFLAEKVETYEEFEQALDAGFNYFQGYFFSKPEMIQKKRLNPAFLTVIQLCKEIADKPIDFNEVERLFSIDVTLSYKLLTYVNSGYTLTTKIKSFRQALIYLGEERLRRFISLVAIASVQEDKPDSLYSLAIQRARMCEILLSQMKTKYDPGQAFLTGMFSLLGSLLDQPLSDVIEDIPVDEDIKLALTSRKGVLGYLLSMCIAYEQADWELAERYCSVLKLTETQLADAFNESTEWAQELLSQTP”, the “soluble on expression in E. coli” value is “not soluble”.

In the case of “MGSDKIHHHHHHACDNSDRIETETQANGVLLNFNASTIDATTTETRSFVPIEGFAKNEYIFGMSVTKDNASRGEIFEGSRNLKATMSRPSGDAPWNWEFSNNASGTVVTPRGPEGKPLRVIAYYPAIAGTENFTDGIPFDFTQTNNPQQKEILYNTNTSYTIPSSGGSDKVTIPLKFQHAYSWISIKVTKSVDKGSHKLSGVSIDNLSGGWIKNKGKINPATGMAMQGAIQGPIGEVRTAEVLDPSGDTATPIIYDFLVPAFMDRNVKDDDLVFTLIIDGKKEIFSLGREHLNNDGDTYGFKQGYVNTYNVEFNNSSLNMRLLNWTSTRIDGDFGQNVTNPTNYQEMSFYYAEDNGGWTTANGKVFPPKYKDLPAGDRRYYNYLTTVKYGGNGEYVPAKPVTDPPPPKGIIIEDDANVATQEPACRLFQMTTKDVSIEPVPWEDEMGQLVAKELCRKYNGGGFKDWRLPRASELRALLVYAIYGAGTKQFINLKLTNDVNREKLYWTGTEESEDKAWAMLYYDDNTLVGRGPNISAQDKSTRLSVRCIRQLQ”, the “soluble on expression in E. coli” value was “not soluble”.

The values are drawn from the DeepSol protein solubility set.
